Reference: patent US20240368668A1, “SUBSTRATES AND BIOMARKERS OF ADAMTS7” (The Broad Institute, Inc., priority 2021, published 2024)
Square brackets hold non-standard residues; d marks the D form. Ends that are not written are not given here. pGlu = O=C1CC[C@@H](C(=O)O)N1

Target: T1, mouse ADAMTS7 (Mus musculus, UniProt Q68SA9, E373Q)
T1 construct: Full-length mouse Adamts7 1-1857 (Uniprot Q68SA9, WT or E373Q catalytic mutant); expressed in transfected cells; host or cells: Human Coronary Artery Smooth Muscle Cells (HCA-SMC, Lonza), adenovirus 50 MOI
T1 sequence (Q68SA9 221-1657 E373Q): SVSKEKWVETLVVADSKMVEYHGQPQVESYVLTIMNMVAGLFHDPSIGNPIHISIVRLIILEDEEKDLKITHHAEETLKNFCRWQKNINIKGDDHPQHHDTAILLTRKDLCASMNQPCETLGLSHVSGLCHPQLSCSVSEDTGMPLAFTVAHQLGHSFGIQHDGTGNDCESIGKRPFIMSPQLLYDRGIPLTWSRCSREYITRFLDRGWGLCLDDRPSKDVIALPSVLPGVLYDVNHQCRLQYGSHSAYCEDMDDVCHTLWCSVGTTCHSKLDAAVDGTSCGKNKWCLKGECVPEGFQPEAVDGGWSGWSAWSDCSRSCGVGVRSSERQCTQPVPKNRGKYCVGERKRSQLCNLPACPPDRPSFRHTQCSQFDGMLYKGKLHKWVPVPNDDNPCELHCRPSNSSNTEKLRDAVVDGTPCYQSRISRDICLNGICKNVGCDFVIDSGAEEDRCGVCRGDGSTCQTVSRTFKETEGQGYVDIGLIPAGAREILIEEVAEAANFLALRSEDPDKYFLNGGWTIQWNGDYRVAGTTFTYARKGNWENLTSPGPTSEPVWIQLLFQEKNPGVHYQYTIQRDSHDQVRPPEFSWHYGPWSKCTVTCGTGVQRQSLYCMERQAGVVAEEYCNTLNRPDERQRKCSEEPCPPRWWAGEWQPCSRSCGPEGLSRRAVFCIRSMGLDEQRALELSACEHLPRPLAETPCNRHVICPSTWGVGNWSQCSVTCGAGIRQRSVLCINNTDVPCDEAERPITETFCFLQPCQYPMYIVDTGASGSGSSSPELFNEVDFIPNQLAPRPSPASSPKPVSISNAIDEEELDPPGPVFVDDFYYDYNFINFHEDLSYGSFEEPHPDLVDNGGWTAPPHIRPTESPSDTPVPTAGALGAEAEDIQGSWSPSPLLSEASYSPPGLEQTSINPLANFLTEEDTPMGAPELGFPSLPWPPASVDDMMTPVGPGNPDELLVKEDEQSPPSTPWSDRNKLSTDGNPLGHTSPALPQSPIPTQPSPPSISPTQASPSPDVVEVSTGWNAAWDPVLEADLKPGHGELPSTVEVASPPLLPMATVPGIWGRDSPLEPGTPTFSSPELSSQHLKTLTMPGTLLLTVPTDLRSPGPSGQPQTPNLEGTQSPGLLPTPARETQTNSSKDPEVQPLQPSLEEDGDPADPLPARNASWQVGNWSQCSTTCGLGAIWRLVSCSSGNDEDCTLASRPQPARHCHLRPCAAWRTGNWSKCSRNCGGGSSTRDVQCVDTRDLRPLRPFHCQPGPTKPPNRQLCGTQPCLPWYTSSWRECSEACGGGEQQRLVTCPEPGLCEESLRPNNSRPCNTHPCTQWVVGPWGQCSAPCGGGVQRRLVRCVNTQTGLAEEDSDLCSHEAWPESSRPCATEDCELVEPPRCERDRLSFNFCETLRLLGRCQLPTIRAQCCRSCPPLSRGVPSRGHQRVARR
Experiment: TMT10 TAILS N-terminomics, SMC1 experiment (Ad-mADAMTS7 WT vs EQ vs Luc, technical replicates, trypsin digest)
Format: cell-based
Details: TAILS neo-N-terminal peptide abundance; log fold change, Ad-mADAMTS7 EQ over Luc
Source text: ADAMTS7 Expression, Cell Culture and Preparation of the Secreted Proteins—Full-length mouse Adamts7 1-1857 (Uniprot Q68SA9, WT or E373Q catalytic mutant) with a carboxyl terminal 3xFLAG tag was used to generate custom adenoviruses as previously described. Adeno-CMV-Luciferase (Ad-Luc) from Vector Biolabs was used as a negative control. Human Coronary Artery Smooth Muscle Cells (HCA-SMC) were obtained from Lonza and expanded in Lonza SmGM-2 media in 15 cm tissue culture plates. Twenty-four hours before media collection, near confluent plates were transduced with 50 MOI adenovirus and switched to Lonza Basal SM media with volumes of 20 ml per 15 cm plate. Expression of the Flag tagged ADAMTS7 was confirmed from the media using western blot and detected using the anti-Flag M2-HRP antibody (Sigma, A8592). Collected media was processed by adding protease inhibitors (1 mM EDTA and 1 mM PMSF) and clarified by 500 g×5 min spin at 4 C to pellet cell debris. Cell media supernatants were then passed through a 0.22 um filter and kept chilled. Processed media was then concentrated 50-100× using 3 kDa Centricon Plus-70 filter unit, spun at 3,500 g×60 min at 4 C. Approximately 10% of the processed, concentrated media was set aside for total secretome proteolytic analysis. The remaining 90% of the processed, concentrated media was buffer exchanged into 50 mM HEPES pH 8.0, 150 mM NaCl (2×50 ml) using the 3 kDa Centricon Plus-70 filter unit and concentrated to >2 mg/ml to serve as input for the TAILS experiment. Secretome and TAILS input samples were stored at −80° C.
For the first experiment, referred to as SMC1, 120 ml of media from 6×15 cm dishes was pooled from each condition (Luc, WT, EQ) and processed to produce three separate inputs for the TAILS experiment. Luc, WT and EQ inputs from the SMC1 experiment were each divided into triplicate 400 ug samples to generate technical replicate TAILS data. For the second experiment, referred to as SMC2, media was processed separately in triplicate for each condition (Luc1, Luc2, Luc3, WT1, WT2, WT3, EQ1, EQ2, EQ3) using 60 ml of media from 3×15 cm dishes for each process replicate. Inputs from the SMC2 experiment used process replicates of 300 ug each to generate TAILS data. The third experiment used input from cultured Human umbilical vein endothelial cells (HUVEC) from Lifeline Cell Technology grown in VascuLife Media and transduced in Lifeline Basal EC (+bFGF2 10 ng/ml). The HUVEC experiment used the same strategy as the SMC2 experiment, with 40 ml of media from 2×15 cm dishes for each process replicate and used 200 ug each to generate TAILS data. Inputs for process replicate experiments were restricted to the lowest concentration from the 9 parallel samples for SMC2 or HUVEC.
TMT10 isotopic labeling and negative selection of non-labeled peptides-Sample preparation was performed based on the TAILS protocol from the Overall lab with some modifications. From a single experiment, nine parallel protein samples in 50 mM HEPES pH 8.0, 150 mM NaCl were separately denatured with guanidinium chloride (Sigma, G4505) to reach a final concentration of 2.5M guanidinium chloride and 250 mM HEPES and incubated at 65° C. for 15 min. Reduction was achieved through addition of tris(2-carboxylethyl) phosphine (TCEP) at a final concentration of […] and incubated at 65° C. for 45 min. Alkylation reaction was performed with addition of iodoacetamide (IAA, Sigma, A3221) to a final concentration of 10 mM IAA for 15 min at room temperature in the dark. Following denaturation, reduction and alkylation steps, ten percent of each of the nine parallel protein samples was removed and combined to serve as a pooled reference. Isobaric tags were added to free amine groups using the TMT10plex Isobaric Mass Tagging Kit (ThermoFisher, 90113) with TMT channels randomly assigned to the nine samples and TMT 131 assigned to the pooled reference. […]

Substance | logFC.mEQ.over.Luc
LTBP2_760 (SSGALPGPAER; listed as Homo sapiens) | 0.29
LGALS3BP_447 (FQAPSDYR; listed as Homo sapiens) | 0.57
EFEMP1_125 (VAGPEMQTGR; listed as Homo sapiens) | −0.33
FLNA_695 (FTVDAKHGGKAPLR; listed as Homo sapiens) | −0.25
ADAM9_69 (VIQAEGKEHIIHLER; listed as Homo sapiens) | −0.10
LTBP2_1584 (SSEVYAQLCNVAR; listed as Homo sapiens) | 0.32
LOXL2_37 (FQQPAPEYHQPQAPANVAKIQLR; listed as Homo sapiens) | 0.09
GSN_35 (SQAGAPQGR; listed as Homo sapiens) | 0.05
CCDC80_66 (LEEPNLQPLQR; listed as Homo sapiens) | 0.14
FN1_1656 (SSSPVTGYR; listed as Homo sapiens) | −0.08
EFHD2_67 (QGIGEPQSPSR; listed as Homo sapiens) | −0.09
LTBP2_1023 (GKCTNLEGSFR; listed as Homo sapiens) | 0.03
HSPG2_275 (LLPGSVR; listed as Homo sapiens) | 0.38
LGALS1_53 (HGDANTIVCNSKDGGAWGTEQR; listed as Homo sapiens) | 0.94
LTBP2_485 (SVQIHQVAQVR; listed as Homo sapiens) | −0.42
FBLN2_259 (ALGPPAPVQAKAR; listed as Homo sapiens) | −0.01
FN1_36 (MVQPQSPVAVSQSKPGCYDNGKHYQINQQWER; listed as Homo sapiens) | 0.39
FN1_281 (SGSGPFTDVR; listed as Homo sapiens) | 0.56
HSPG2_2331 (ANLAYPAGSTQPIR; listed as Homo sapiens) | 0.03
LOX_80 (ANASAQQPR; listed as Homo sapiens) | −0.16
LTBP1_393 (LTATNFR; listed as Homo sapiens) | 0.14
HEG1_49 (GAGLELQLER; listed as Homo sapiens) | 0.51
FLNA_1285 (LTQTGGPHVKAR; listed as Homo sapiens) | −0.11
LOXL2_38 ([code q]QPAPEYHQPQAPANVAKIQLR; not fully specified; listed as Homo sapiens) | 0.11

The remaining lines, values ahead:

logFC.mEQ.over.Luc | Substance
0.28 | IGFBP3_32 (AGLGPVVR; listed as Homo sapiens)
−0.59 | EFEMP1_124 (AVAGPEMQTGR; listed as Homo sapiens)
0.21 | FBN1_29 (LEAGNVKETR; listed as Homo sapiens)
−0.11 | LOX_58 (LSLGSQYQPQR; listed as Homo sapiens)
0.00 | HSPG2_3250 (SPLPWQHR; listed as Homo sapiens)
0.31 | LTBP2_1371 (SGQKGHAPCSSVLGR; listed as Homo sapiens)
−0.10 | LOXL1_219 (VASAGVIYPYQPR; listed as Homo sapiens)
−0.15 | FN1_282 (GSGPFTDVR; listed as Homo sapiens)
−0.02 | HSPG2_4021 (LNKDGSLR; listed as Homo sapiens)
0.49 | FN1_45 (VSQSKPGCYDNGKHYQINQQWER; listed as Homo sapiens)
0.19 | FLNA_612 (SVEGPSQAKIECDDKGDGSCDVR; listed as Homo sapiens)
0.28 | ECM1_134 (FGDQSHPEPESWNAAQHCQQDR; listed as Homo sapiens)
−0.11 | FN1_1731 (FTDVDVDSIKIAWESPQGQVSR; listed as Homo sapiens)
−0.53 | LASP1_123 (HEEFEKSR; listed as Homo sapiens)
0.23 | LTBP2_1560 (TTYTECCCQDGEAWSQQCALCPPR; listed as Homo sapiens)
−0.26 | HSPG2_3647 ([pGlu]GKVKAFAHLQVPER; listed as Homo sapiens)
0.02 | HSPG2_4075 (GCVGEVSVNGKR; listed as Homo sapiens)
0.06 | HSPG2_3672 (SFLPLPTIKDAYR; listed as Homo sapiens)
0.05 | LTBP2_677 (SLGPGTCTLPLAQR; listed as Homo sapiens)
−0.30 | LOX_81 (NASAQQPR; listed as Homo sapiens)
−0.20 | GSN_413 (HIANVER; listed as Homo sapiens)
−0.28 | HSPG2_3813 (SSGFIGCVR; listed as Homo sapiens)
0.49 | FN1_886 (NQESTPVVIQQETTGTPR; listed as Homo sapiens)
0.19 | FN1_47 ([code q]SKPGCYD[code n]GKHYQINQQWER; not fully specified; listed as Homo sapiens)
